Reference: patent US20230357367A1
Where two headings read alike, the source gives them in different places.

Columns and labels:
Assay in all cases: cell-based or functional assay
[1] = target: SARS-CoV-2 Omicron BA.4/5 Spike on pseudovirus (SARS-CoV-2)
[2] = target: spike (SARS-CoV-2, BQ.1.1) (SARS-CoV-2)
[3] = target: spike (SARS-CoV-2, XBB.1.5) (SARS-CoV-2)
[4] = target: spike (SARS-CoV-2, B.1.617.2, Delta) (SARS-CoV-2)
[5] = target: spike (SARS-CoV-2, B.1.617.2, Delta) (SARS-CoV-2); remark: listed apart in the source
[6] = target: spike (SARS-CoV-2, B.1.617.2, Delta) (SARS-CoV-2); remark: listed apart in the source
[7] = target: spike (SARS-CoV-2, B.1.617.2, Delta) (SARS-CoV-2); remark: listed apart in the source
[8] = target: spike (SARS-CoV-2, BQ.1.1) (SARS-CoV-2); remark: listed apart in the source
[9] = target: spike (SARS-CoV-2, BA.2.12.1) (SARS-CoV-2)
[10] = target: spike (SARS-CoV-2, XBB.1.5) (SARS-CoV-2); remark: listed apart in the source
[11] = target: spike (SARS-CoV-2, BA.2.75) (SARS-CoV-2)
[12] = target: spike (SARS-CoV-2, BQ.1) (SARS-CoV-2)
[13] = target: spike (SARS-CoV-2, CH.1.1) (SARS-CoV-2)
[14] = target: spike (SARS-CoV-2, XBB.1) (SARS-CoV-2)
[15] = target: spike (SARS-CoV-2, BA.1) (SARS-CoV-2)
[16] = target: spike (SARS-CoV-2, BF.7) (SARS-CoV-2)
[17] = target: spike (SARS-CoV-2, BA.1.1) (SARS-CoV-2)
[18] = target: spike (SARS-CoV-2, B.1.617.2, Delta) (SARS-CoV-2); remark: listed apart in the source
[19] = target: spike (SARS-CoV-2, BA.4.6) (SARS-CoV-2)
[20] = target: spike (SARS-CoV-2, BA.2) (SARS-CoV-2)
[21] = target: spike (SARS-CoV-2, BA.2.3.20) (SARS-CoV-2)
[22] = target: spike (SARS-CoV-2, BF.7.14) (SARS-CoV-2)
[23] = target: spike (SARS-CoV-2, BN.1) (SARS-CoV-2)
[24] = target: spike (SARS-CoV-2, BA.2.75.2) (SARS-CoV-2)
[25] = target: spike (SARS-CoV-2, BA.4/5) (SARS-CoV-2)
[26] = target: spike (SARS-CoV-2, BQ.1.1) (SARS-CoV-2); remark: listed apart in the source
[27] = target: spike (SARS-CoV-2, XBB.1.5) (SARS-CoV-2); remark: listed apart in the source
[28] = target: spike (SARS-CoV-2, BQ.1.1) (SARS-CoV-2); remark: listed apart in the source
[29] = target: spike (SARS-CoV-2, XBB.1.5) (SARS-CoV-2); remark: listed apart in the source
[30] = target: spike (SARS-CoV-2, BQ.1.1) (SARS-CoV-2); remark: listed apart in the source
[31] = target: spike (SARS-CoV-2, XBB.1.5) (SARS-CoV-2); remark: listed apart in the source
[32] = target: SARS-CoV-2 Omicron BA.1 Spike on virus particles (SARS-CoV-2)
[33] = target: SARS-CoV-2 Omicron BA.2.12.1 Spike on pseudovirus (SARS-CoV-2)
[34] = target: SARS-CoV-2 Delta Spike on virus particles (SARS-CoV-2)
[35] = target: SARS-CoV-2 Omicron BA.4/5 Spike on pseudovirus (SARS-CoV-2); remark: listed apart in the source
[36] = target: SARS-CoV-2 Omicron BA.2 Spike on pseudovirus (SARS-CoV-2)
[37] = target: SARS-CoV-2 Omicron BA.1 Spike on virus particles (SARS-CoV-2); remark: listed apart in the source
[38] = target: SARS-CoV-2 Omicron BA.2.12.1 Spike on pseudovirus (SARS-CoV-2); remark: listed apart in the source
[39] = target: SARS-CoV-2 Delta Spike on virus particles (SARS-CoV-2); remark: listed apart in the source
[40] = target: SARS-CoV-2 Omicron BA.2 Spike on pseudovirus (SARS-CoV-2); remark: listed apart in the source

Bebtelovimab (antibody)
Neutralization - IC50, pseudovirus [1]: 0.3 ng/mL

bebtelovimab (antibody)
Emax, pseudovirus neutralization, Vero E6, with isotype (% neutralization) [2]: 55.6
Emax, pseudovirus neutralization, Vero E6, with isotype (% neutralization) [3]: 0.55
Emax, pseudovirus neutralization, Vero E6, with isotype (% neutralization) [4]: 99.7
EC90, pseudovirus neutralization, Vero E6, with isotype [5]: 0.012 µg/mL
EC50, pseudovirus neutralization, Vero E6, with isotype [6]: 0.44 ng/mL
EC80, pseudovirus neutralization, Vero E6, with isotype [7]: 0.0035 µg/mL
Emax, pseudovirus neutralization (% neutralization) [8]: 53
Emax, pseudovirus neutralization, TMPRSS2-Vero E6, with isotype (% neutralization) [8]: 40.5
Emax, pseudovirus neutralization, Vero E6, with isotype (% neutralization) [8]: 59.1
EC50, pseudovirus neutralization [9]: 0.2 ng/mL
EC80, pseudovirus neutralization [9]: 1.2 ng/mL
EC90, pseudovirus neutralization [9]: 3.6 ng/mL
Emax, pseudovirus neutralization (% neutralization) [9]: 99.9
Emax, pseudovirus neutralization (% neutralization) [10]: 2.01
Emax, pseudovirus neutralization, TMPRSS2-Vero E6, with isotype (% neutralization) [10]: 2.93
Emax, pseudovirus neutralization, Vero E6, with isotype (% neutralization) [10]: 4.21
EC50, pseudovirus neutralization [11]: 0.65 ng/mL
EC80, pseudovirus neutralization [11]: 8.2 ng/mL
EC90, pseudovirus neutralization [11]: 0.036 µg/mL
Emax, pseudovirus neutralization (% neutralization) [11]: 99.5
Emax, pseudovirus neutralization (% neutralization) [12]: 72.2
Emax, pseudovirus neutralization (% neutralization) [13]: 5.32
Emax, pseudovirus neutralization (% neutralization) [14]: 10.8
EC50, pseudovirus neutralization [15]: 0.17 ng/mL
EC80, pseudovirus neutralization [15]: 1.8 ng/mL
EC90, pseudovirus neutralization [15]: 7.2 ng/mL
Emax, pseudovirus neutralization (% neutralization) [15]: 99.8
EC50, pseudovirus neutralization [16]: 0.11 ng/mL
EC80, pseudovirus neutralization [16]: 1.7 ng/mL
EC90, pseudovirus neutralization [16]: 8.5 ng/mL
Emax, pseudovirus neutralization (% neutralization) [16]: 99.8
EC50, pseudovirus neutralization [17]: 0.12 ng/mL
EC80, pseudovirus neutralization [17]: 1.3 ng/mL
EC90, pseudovirus neutralization [17]: 5.6 ng/mL
Emax, pseudovirus neutralization (% neutralization) [17]: 99.9
EC50, live virus neutralization [18]: 4.6 ng/mL
EC50, pseudovirus neutralization [18]: 3.8 ng/mL
EC50, pseudovirus neutralization, TMPRSS2-Vero E6, with isotype [18]: 1.6 ng/mL
EC50, pseudovirus neutralization, Vero E6, with isotype [18]: 0.63 ng/mL
EC80, pseudovirus neutralization [18]: 0.023 µg/mL
EC80, pseudovirus neutralization, TMPRSS2-Vero E6, with isotype [18]: 0.013 µg/mL
EC80, pseudovirus neutralization, Vero E6, with isotype [18]: 4.2 ng/mL
EC90, live virus neutralization [18]: 15.9 ng/mL
EC90, pseudovirus neutralization [18]: 0.066 µg/mL
EC90, pseudovirus neutralization, TMPRSS2-Vero E6, with isotype [18]: 0.043 µg/mL
EC90, pseudovirus neutralization, Vero E6, with isotype [18]: 0.013 µg/mL
Emax, pseudovirus neutralization (% neutralization) [18]: 99.9
Emax, pseudovirus neutralization, TMPRSS2-Vero E6, with isotype (% neutralization) [18]: 99.7
Emax, pseudovirus neutralization, Vero E6, with isotype (% neutralization) [18]: 99.7
EC50, pseudovirus neutralization [19]: 0.2 ng/mL
EC80, pseudovirus neutralization [19]: 2.5 ng/mL
EC90, pseudovirus neutralization [19]: 0.011 µg/mL
Emax, pseudovirus neutralization (% neutralization) [19]: 99.6
EC50, pseudovirus neutralization [20]: 0.2 ng/mL
EC80, pseudovirus neutralization [20]: 1.4 ng/mL
EC90, pseudovirus neutralization [20]: 4.4 ng/mL
Emax, pseudovirus neutralization (% neutralization) [20]: 99.9
EC50, pseudovirus neutralization [21]: 0.012 µg/mL
EC80, pseudovirus neutralization [21]: 0.36 µg/mL
EC90, pseudovirus neutralization [21]: 2.6 µg/mL
Emax, pseudovirus neutralization (% neutralization) [21]: 97.9
EC50, pseudovirus neutralization [22]: 0.22 ng/mL
EC80, pseudovirus neutralization [22]: 1.4 ng/mL
EC90, pseudovirus neutralization [22]: 4.1 ng/mL
Emax, pseudovirus neutralization (% neutralization) [22]: 99.8
EC50, pseudovirus neutralization [23]: 0.467 ng/mL
EC80, pseudovirus neutralization [23]: 5.3 ng/mL
EC90, pseudovirus neutralization [23]: 0.022 µg/mL
Emax, pseudovirus neutralization (% neutralization) [23]: 99.4
EC50, pseudovirus neutralization [24]: 0.46 ng/mL
EC80, pseudovirus neutralization [24]: 6.3 ng/mL
EC90, pseudovirus neutralization [24]: 0.029 µg/mL
Emax, pseudovirus neutralization (% neutralization) [24]: 99.5
EC50, pseudovirus neutralization [25]: 0.073 ng/mL
EC80, pseudovirus neutralization [25]: 1.2 ng/mL
EC90, pseudovirus neutralization [25]: 6.4 ng/mL
Emax, pseudovirus neutralization (% neutralization) [25]: 99.8

sotrovimab VH/VL-hamIgG2a (antibody)
EC50, pseudovirus neutralization, Vero E6 [20]: 0.361 µg/mL

sotrovimab VH/VL-huIgG1-LS (antibody)
Emax, pseudovirus neutralization, Vero E6, with isotype (% neutralization) [2]: 71.9
Emax, pseudovirus neutralization, Vero E6, with isotype (% neutralization) [3]: 93.4
Emax, pseudovirus neutralization, Vero E6, with isotype (% neutralization) [4]: 96.9
EC90, pseudovirus neutralization, Vero E6, with isotype [26]: 9.6 µg/mL
EC90, pseudovirus neutralization, Vero E6, with isotype [27]: 1.5 µg/mL
EC90, pseudovirus neutralization, Vero E6, with isotype [5]: 0.11 µg/mL
EC50, pseudovirus neutralization, Vero E6, with isotype [28]: 1.2 µg/mL
EC50, pseudovirus neutralization, Vero E6, with isotype [29]: 0.17 µg/mL
EC50, pseudovirus neutralization, Vero E6, with isotype [6]: 7.9 ng/mL
EC80, pseudovirus neutralization, Vero E6, with isotype [30]: 4.4 µg/mL
EC80, pseudovirus neutralization, Vero E6, with isotype [31]: 0.68 µg/mL
EC80, pseudovirus neutralization, Vero E6, with isotype [7]: 0.042 µg/mL
EC50, pseudovirus neutralization, Vero E6 [20]: 0.851 µg/mL

AZD1061 (antibody)
IC50, pseudovirus neutralization [32]: 1220 ng/mL
IC50, pseudovirus neutralization [33]: 5.1 ng/mL
IC50, pseudovirus neutralization [34]: 5.9 ng/mL
IC50, pseudovirus neutralization [35]: 41.2 ng/mL
IC50, pseudovirus neutralization [36]: 5.8 ng/mL
% neutralization at 4.5 µg/ml, pseudovirus [37]: 83.9%
% neutralization at 4.5 µg/ml, pseudovirus [38]: 99.8%
% neutralization at 4.5 µg/ml, pseudovirus [39]: 100%
% neutralization at 4.5 µg/ml, pseudovirus [1]: 96.7%
% neutralization at 4.5 µg/ml, pseudovirus [40]: 99.7%

sotrovimab VH/VL-huIgG1 (antibody)
EC50, pseudovirus neutralization, Vero E6 [20]: 0.862 µg/mL

AZD8895 (antibody)
IC50, pseudovirus neutralization [32]: 1160 ng/mL
IC50, pseudovirus neutralization [33]: 415 ng/mL
IC50, pseudovirus neutralization [34]: 0.5 ng/mL
IC50, pseudovirus neutralization [36]: 608 ng/mL
% neutralization at 4.5 µg/ml, pseudovirus [37]: 96.5%
% neutralization at 4.5 µg/ml, pseudovirus [38]: 94.2%
% neutralization at 4.5 µg/ml, pseudovirus [39]: 102%
% neutralization at 4.5 µg/ml, pseudovirus [1]: 25.8%
% neutralization at 4.5 µg/ml, pseudovirus [40]: 93.9%

Sotrovimab VH/VL (human IgG1 molecule expressing the same variable regions of Sotrovimab) (antibody)
IC50, pseudovirus neutralization [32]: 63.3 ng/mL
IC50, pseudovirus neutralization [33]: 714 ng/mL
IC50, pseudovirus neutralization [34]: 12.3 ng/mL
IC50, pseudovirus neutralization [35]: 666 ng/mL
IC50, pseudovirus neutralization [36]: 392 ng/mL
% neutralization at 4.5 µg/ml, pseudovirus [37]: 99.4%
IC50, live virus neutralization [37]: 410 ng/mL
% neutralization at 4.5 µg/ml, pseudovirus [38]: 76.9%
IC50, pseudovirus neutralization [38]: 1200 ng/mL
% neutralization at 4.5 µg/ml, pseudovirus [39]: 101%
IC50, live virus neutralization [39]: 57.9 ng/mL
IC50, pseudovirus neutralization [39]: 65 ng/mL
% neutralization at 4.5 µg/ml, pseudovirus [1]: 60.5%
IC50, pseudovirus neutralization [1]: > 4500 ng/mL
Neutralization - IC50, pseudovirus [1]: 424 ng/mL
% neutralization at 4.5 µg/ml, pseudovirus [40]: 73.1%
IC50, pseudovirus neutralization [40]: 704 ng/mL
